Measured values as given in paper PMC5646243.
pKd: −log10 of the molar value.

Test system: TbRpf2 (Trypanosoma brucei (427?))
Assay: filter binding
Details: no Rrs1; 1 mM EDTA; error presumably SEM, 3 replicates; 10 mM Tris pH 7.4, 1 mM EDTA, 100 mM NaCl, 100 ug/ml BSA, 30 min, room temperature; RNA <0.5 nM, protein 0-250 nM

T. brucei 5S rRNA
pKd: 7.59
